Assay: yeast display, Sf9 membrane polyspecificity reagent, FACS + sequencing; frameworks hold sequencing errors
Method in brief: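 After 36–48 hours of galactose induction, yeast (Saccharomyces cerevisiae BJ5465) displaying a synthetic nanobody library were stained at 4 °C for 1 hour with 10% biotinylated, detergent-solubilized Sf9 membrane reagent. Streptavidin microbeads enriched the stained cells before FACS sorting into low and high (top ~1%) gates on anti-HA and streptavidin fluorescence. Each clone's polyreactivity label reflects its gate of origin.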

Sequence | polyreactivity (PSR sort gate)
QVQLVESGGGLVQAGGSLRLSCAASGSTSQSNAMGWYRQAPGKERELVAAISWSGTSTYYADSVKGRFTISRDNAKNTVYLQMNSLNPEDSAVYYCAADYIFDYDYWGQGTQVTVSS | low polyreactivity
QVQLVESGGGLVQAGGSLRLSCAASGSTSQYNAMGWYRQAPGKERELVAAISWSGTSTYYADSVKGRFTISRDNAKNTVYLQMNSLKPEDTAVYYCAADYIFDYDYWGQGTQVTVSS | low polyreactivity
QVQLVESGGGLVQAGGSLRLSCAASGSTSRHNTMGWYRQPPGKERELVAAISGGGTTYYADSVKGRFTISRDNAKNTVYLQMNSLKPEDTAVYYCAAAFWGDYASSYRSGLDYWGQGTQVTVSS | low polyreactivity
QVQLVESGGGLVQAGGSLRLSCAASGSTSRIYAMGWYRQAPGKERELVAAITRSGGSTYYADSVKGRFTISRDNAKNTVYLQMNSLKPEDTAVYYCAADYRSHSRYRYDKVDYWGQGTQVTVSS | high polyreactivity
QVQLVESGGGLVQAGGSLRLSCAASGSTSRYNVMGWSRQPPGKERELVAAISSRGVSTYYADSVKGRFTISRDNAKNTVYLQMNSLKPEDTAVYYCAALYGGPSHYGYWGQGTQVTVSS | high polyreactivity
QVQLVESGGGLVQAGGSLRLSCAASGSTSRYYDMGWYRQAPGKERELVATITISGITNYADSLKGRFTISRDNAKNTVYLQMNSLKPEDTAVYYCATVGPWPGEYDYWGQGTQVTVSS | low polyreactivity
QVQLVESGGGLVQAGGSLRLSCAASGSTSSNNAMGWYRQAPGKERELVADISTNGDSTSYADSVKGRFTISRDNAKNTVYLQMNSLKPEDTAVYYCNKDFVYPDDDGLFDYWGQGTQVTVSS | low polyreactivity
QVQLVESGGGLVQAGGSLRLSCAASGSTSTLYAMGWYRQAPGKERELVAAISKSGGRTYYADSVKGRFTISRDNAKNTVYLQMNSLKPEDTAVYYCAALAVYPRRFDYWGQGTQVTVSS | high polyreactivity
QVQLVESGGGLVQAGGSLRLSCAASGSTSVTNAMGWYRQAPGKEREFVATINYSGTSTYYADSVKGRFTISRDNAKNTVYLLMNSLKPEDTAVYYCNKTFVRGVHGVYLPITSYDYWAQGTQVTVSS | low polyreactivity
QVQLVESGGGLVQAGGSLRLSCAASGSTSYDNSMGWNRKAPGKERELVAAITSDGGSTYYADSVKGRFTISRDKAKNTLYLQMNSLKPEDTAVYYCSADVVHQEWVYVYGGRDDYWGQGTQVTVSS | low polyreactivity
QVQLVESGGGLVQAGGSLRLSCAASGSTSYNAMGWYRQAPGKERELVAAISDGGGSTYYADSVKGRFTISRDNAKNTVYLQMNSLKPEDTAVYYCAADTITGDGYWGQGTQVTVSA | low polyreactivity
QVQLVESGGGLVQAGGSLRLSCAASGSTSYRYAMGWYRQAPGKERELVAGITRSGGSTYYADSVKGRFTISRDNAKNTVYLQMNSLKPEDTAVYYCAAYYSRQYVGYGYWGQGTQVTVSS | high polyreactivity
QVQLVESGGGLVQAGGSLRLSCAASGSTSYVYAMGWYRQAPGKERELVAAISNTGNTNYADSVKGRFTISRDNAKNTVYLQMNSLKPEDTAVYYCNADRRGENDWHERDYWGQGTQVTVSS | low polyreactivity
QVQLVESGGGLVQAGGSLRLSCAASGSTVAYYAMGWYRQAPGKERELVAAITIDGRTSYADSVKGRFTISRDNAKNTVYLQMNSLKREDTAVYYCARGYFPYGYPWRWGYDRFDYWGQGTQVTVSS | low polyreactivity
QVQLVESGGGLVQAGGSLRLSCAASGSTVRGYAKGWYRQAPGKERELGAAITWSGGTTYYADSVKGRFTISRDNAKTTVYLQMNSLKPEDTAVYYCAAQNWDSDPYDYWGQATQVTVSS | low polyreactivity
QVQLVESGGGLVQAGGSLRLSCAASGSTVSDNAMGWYRQAPGKERELVAAINWGGSNTYYADSVKGRFTISRDNAKNTVYLQMNSLKPEDTAVYYFNADIPRRTNRHYLYDYWGQGTQVTVSS | low polyreactivity
QVQLVESGGGLVQAGGSLRLSCAASGSTVSSNAMGWFRLAPGQERELVAAIDRGGSTYYADSVKGRFTISRDNAKNTVYLQMNSRKPEDTAVYYCNADYYHLNSGMYYWGQGTQVTVSS | low polyreactivity
QVQLVESGGGLVQAGGSLRLSCAASGSTVVRYGMGSYRQAPGKERELVAVISRSGGSTYYADSVKARFTISRDNAKNTVFLQMNSLKPEDTAVYYCAITRYGNPNSGGVGYWGQGTQVTVSS | high polyreactivity
QVQLVESGGGLVQAGGSLRLSCAASGSTYANAMGWYRQAPGKERELVAAITDNGGRTYYADSVKGRFTISRDNEKNNVYLQMNSLKPEDTAVYYCAARSSVWGQVTQVTVSS | low polyreactivity
QVQLVESGGGLVQAGGSLRLSCAASGSTYDDNAMGWYRQAPRKERELVAGISTNGGSTSYADSVKGRFTISRDNAKNTVYLQMNSLYPEDTAVYYCATGLYVQFDYWGQGTQVTVSS | low polyreactivity
QVQLVESGGGLVQAGGSLRLSCAASGSTYGYAMGWYRQAPGKERELVAAISSSGGRTYYADSVKGRFTISRDNAKNTVYLQMNSLKPEDTAVYYCAAGGFSQHGHGYWGQGTQVTVSS | high polyreactivity

Sequence | polyreactivity (PSR sort gate)
QVQLVESGGGLVQAGGSLRLSCAASGSTYHQYTMGWYRQAPRKERELVSTINNGGITNYADSLKGRFTISRDNAKKTVYLQLISQNPEDTAVYYCAADYSYYGRYGRYDYWGQGTQVTVSS | low polyreactivity
QVQLVESGGGLVQAGGSLRLSCAASGSTYIVYAMGWYRQAPGKERELVAAIRGRGGSTYYADSVKGRFTISRDNAKNTVYLQMNSLKPEVTAVYYCAARGISPLEMYYWGQGTQVTVSS | high polyreactivity
QVQLVESGGGLVQAGGSLRLSCAASGSTYRPYAMGWYRQAPVKERELVAAISWSGGRTYYADSVKGRFTISRDNAKNNVYLPMNSLKPEDTAVYYCNRAGRQPKNTYDYWGQGTQVTVSS | high polyreactivity
QVQLVESGGGLVQAGGSLRLSCAASGSTYSYYTMGWYIQAPGKERELVATISRRGASTYYADSVKGRFTISRDNAKNTVYLQMNSLKPEDTAVYYCAKSYYYGRSATRPEYDYWGQGTQVTVSS | high polyreactivity
QVQLVESGGGLVQAGGSLRLSCAASGSTYTGYTMGWYRQAPGKERELVAAITYRGGSTYYADSVKGRITISRDNAKNTVYLQMNSLKREDTEVYYCAARSFFIMYYWGQGTQVTVSS | low polyreactivity
QVQLVESGGGLVQAGGSLRLSCAASGSTYTHNTMGWYRQAPGKERELVAAISKSGGRTYYADSVKGRFTISRDHAKNTVYLQMNSLKPEVTAVYYCAARVTGVGDYYWGQGTQVTGSS | high polyreactivity
QVQLVESGGGLVQAGGSLRLSCAASGSTYVQYAMGWYRKAPGKERELVPVISYSGGSTYYADSVKGRFTISRDNAKNTVYLQMNSLKPEDTAVYYCAAVYGGGHRKMDYWGQGTQVTVSS | low polyreactivity
QVQLVESGGGLVQAGGSLRLSCAASGSTYYYAMGWSRQAPGKERELVAAISSSSGSTYYADSVKGRFTISRDNAKNTVYLQMNSLKPEDTAVYYCAAEGYKGWVYEYDYWGQGTQVTVSS | low polyreactivity
QVQLVESGGGLVQAGGSLRLSCAASGSYLRYYAMGWYRQAPGKERELVAAISRSGTKTYYADSVKGRFTISRDNAKKTVYLQMNSLKPEDTAVYYCAARGYYRDYDSWGQGTQVTGSS | high polyreactivity
QVQLVESGGGLVQAGGSLRLSCAASGTFERKVMGWYRPAPGKERELVAAISRSGSSTYYADSVKGRFTISRDNAKNTVYLQMNSLKPEDTAVYYCAARGTKQHFNYWGQGTQVTVSS | high polyreactivity
QVQLVESGGGLVQAGGSLRLSCAASGTFFGYALGWYRQAPGKERELVAAITPGGSTYYADSVKGRFTISRDNAKNTVYLQMNSLKPEDTAVYYCARVYSRWSYRYDYWGQGTQVTVSS | low polyreactivity
QVQLVESGGGLVQAGGSLRLSCAASGTFGYYTMGWYRQAPGHERELVAAITRSGGSTYDADSVKGRFTISRDNAKNTVYLQMNSLKPEDTAVYYCATELHAWSSWNRYRAYYYWGQGTQVTVSS | high polyreactivity
QVQLVESGGGLVQAGGSLRLSCAASGTFHWYAMGWYIQAPGKEMELVAAITGSGGNTYYADSVKGRFTISRDNAKNTVYLQMNSLKPEDTAVYYCAARIYTWSVEYTGYGYWGQGTQVTVSS | high polyreactivity
QVQLVESGGGLVQAGGSLRLSCAASGTFNYYAMGWYRQAPGKERELVAAISNGDSTTYADSVKGRFTISRDNAKNTVYLQMNSLKPEDTAVYYCAAYRYTPRTSRGYYYWGQGTQVTVSS | low polyreactivity
QVQLVESGGGLVQAGGSLRLSCAASGTFQVNAMGWYIQAPGKERELVAAINSNGGSTYYADSVKGRFTISRDNAKNTVYLQMNSLKPEDTAVYYCAAVYQRRRSYYWGQGTQVTVSS | high polyreactivity
QVQLVESGGGLVQAGGSLRLSCAASGTFRVYAMGWYRQAPGKERELVAAISRSGTSTYYSDSVKGRFTISRDNAKNTVYLQMNSLKPEDTAVYYCNDVVRGQYDWGQGTQVTVSS | high polyreactivity
QVQLVESGGGLVQAGGSLRLSCAASGTFSPYAIGWYRQAPGKERELVAVITSNTGRTYADSVKGRFTISRDNAKNTVYLQMNSLKPEDTAVYYCAARSTYRHWYRTGSRFDYWGQGTQVTVSS | low polyreactivity
QVQLVESGGGLVQAGGSLRLSCAASGTFVTYMGWYRQAPGKERELVAAIRNGGSTNYADSVKGRFTISRDNAKNTVYLQMNSLKPEDTAVYYCAADRAGSIMNYWGQGTQVTVSS | low polyreactivity
QVQLVESGGGLVQAGGSLRLSCAASGTFVTYMGWYRQSPGKEREMVAAIRNGGSTNYADSVKGRFTISRDNAKNTVYLQMNSLKPEDTAVYYCAARVTYSRGYRGGSRTKYDYWGQGTQVTVSS | low polyreactivity
QVQLVESGGGLVQAGGSLRLSCAASGTFWWYAMGWYRQAPGKERELVASINRGGSTYYADSVKGRFTISRDNANNTVYLQMNSLKPEDTAVYYCNAGWIGRLTPYRRATYNYWGQGTQVTVSS | high polyreactivity

From the nanobody polyreactivity screen of Harvey et al. (2022)
